Drawing on patent publication US8846363B2, “Compositions of and methods of using sulfatases from Flavobacterium heparinum” (priority 2007, dated 2014), this text covers Km and kcat for 2 proteins.

Substrate in series [1]: Cc1cc(=O)oc2cc(O[C@H]3O[C@H](CO)[C@@H](O)[C@H](O)[C@H]3NS(=O)(=O)O)ccc12
Nature of the series: Steady-state kinetics, coupled N-sulfamidase/α-glucosidase fluorimetric assay with 4-MU-GlcNS. It is filed as biochemical, Flavobacterium heparinum (Pedobacter heparinus). The text has this: Recombinant protein expression in the E. coli strain BL21(DE3) and one-step affinity purification by nickel chelation chromatography were as described for 2-O-sulfatase (Myette et al., 2003 J Biol Chem 278, 12157-12166). The prediction of NH2-terminal signal sequences and putative cleavage sites for the two respective proteins was made by the Von Heijne computational method (Nielsen et al., 1997 Protein Eng 10, 1-6.). Engineering and expression of these truncated proteins (minus signal sequences) were as described above for the full-length genes with the exception of substituting the 5′ primers which were used in the original PCR amplification step. These internal primers included 5′ TCTAGACATATGTCTTGCCAGCAGCCTAAAC 3′ (for ORF B; SEQ ID NO: 15) and 5′ TCTAGACATATGTCCTGCACTTCGCCGGAA 3′ (for ORF C; SEQ ID NO: 16), with the Nde 1 site underlined. As such, the ORF B gene sequence begins at Met 18 (FIG. 1). Likewise, the ORF C gene sequence begins at Ser 21 (FIG. 2). Removal of the 6×His tag was achieved by site-specific protease cleavage using the thrombin cleavage capture kit (Novagen, San Diego, Calif.). Proteolysis conditions were generally as described for other recombinantly expressed flavobacterial heparin degrading enzymes. […]
Indirect measurement of enzyme activity was also made using a fluorimetrically-based plate assay in which the prerequisite desulfation of the appropriate glucopyranoside 1→4 methlybelliferone substrate by either the 6-O-sulfatase or N-sulfamidase was coupled to the glucosidase-mediated hydrolysis of the stereo-specific 1→4 glycosidic linkage between the pyranose ring and the adjoining fluorophore. Release of the free fluorophore (4-MU) was monitored spectroscopically as described above for the arylsulfatase assay using 4-MU sulfate. […] Reaction conditions were optimized to satisfy three related criteria: 1) linear readout of fluorescent signal which is directly proportional to sulfatase activity; 2) quantitative release of 4-MU by glucosidase activity under every biochemical condition examined and; 3) negligible fluorescent quenching of the free chromophore.
Coupled N-sulfamidase assay was generally described for the 6-O-sulfatase, but with the following modifications: 4-MU-GlcNS as substrate, 50 mM sodium acetate at pH 6.0 (instead of 5.5) and 1 μM enzyme. […] The obvious difference in enzyme efficacies between α-glucosidase versus β-glucosidase is reflected in the substantially longer incubation times required for the α-glucosidase to quantitatively hydrolyze the glycosidic α1→4 linkage between the fluorophore and the desulfated glucosamine. […]

Substrate in series [2]: CC(=O)N[C@H]1[C@H](Oc2ccc3c(C)cc(=O)oc3c2)O[C@H](COS(=O)(=O)O)[C@@H](O)[C@@H]1O
Nature of the series: Steady-state kinetics, coupled 6-O-sulfatase/β-glucosidase fluorimetric assay with 4-MU-GlcNAc,6S. It is filed as biochemical, Flavobacterium heparinum (Pedobacter heparinus). The text has this: Recombinant protein expression in the E. coli strain BL21(DE3) and one-step affinity purification by nickel chelation chromatography were as described for 2-O-sulfatase (Myette et al., 2003 J Biol Chem 278, 12157-12166). The prediction of NH2-terminal signal sequences and putative cleavage sites for the two respective proteins was made by the Von Heijne computational method (Nielsen et al., 1997 Protein Eng 10, 1-6.). Engineering and expression of these truncated proteins (minus signal sequences) were as described above for the full-length genes with the exception of substituting the 5′ primers which were used in the original PCR amplification step. These internal primers included 5′ TCTAGACATATGTCTTGCCAGCAGCCTAAAC 3′ (for ORF B; SEQ ID NO: 15) and 5′ TCTAGACATATGTCCTGCACTTCGCCGGAA 3′ (for ORF C; SEQ ID NO: 16), with the Nde 1 site underlined. As such, the ORF B gene sequence begins at Met 18 (FIG. 1). Likewise, the ORF C gene sequence begins at Ser 21 (FIG. 2). Removal of the 6×His tag was achieved by site-specific protease cleavage using the thrombin cleavage capture kit (Novagen, San Diego, Calif.). Proteolysis conditions were generally as described for other recombinantly expressed flavobacterial heparin degrading enzymes. Following concentrating the enzymes by ultrafiltration, cleaved proteins were dialyzed overnight against 4 liters of 50 mM Tris, pH 7.5 and 0.1 M NaCl, 4° C., using a 3 mL slide-a-lyzer cassette with a 10,000 molecular weight cutoff (MWCO) (Pierce Chemical, Rockland, Ill.).
Coupled Enzyme Assay for the Determination of Biochemical Reaction Conditions and Steady-State Kinetics
Indirect measurement of enzyme activity was also made using a fluorimetrically-based plate assay in which the prerequisite desulfation of the appropriate glucopyranoside 1→4 methlybelliferone substrate by either the 6-O-sulfatase or N-sulfamidase was coupled to the glucosidase-mediated hydrolysis of the stereo-specific 1→4 glycosidic linkage between the pyranose ring and the adjoining fluorophore. Release of the free fluorophore (4-MU) was monitored spectroscopically as described above for the arylsulfatase assay using 4-MU sulfate. The two sulfatase assays differed in the choice of substrate in accordance to their specificity as well as the glucosidase added during the second, […] step. For the 6-O-sulfatase, the hydrolysis of the substrate 4-MU-β-D-GlcNAc,6S at the 6-OH position was coupled to β-glucosidase purified from sweet almonds (MP Biomedicals, Solon, Ohio, Catalog No. 195197). Likewise, N-sulfamidase hydrolysis of 4-MU-α-D-GlcNS at the 2-amino position was coupled to α-glucosidase (MP Biomedicals, Catalog No. 153487). […] The presumption of the first (sulfatase) activity being the rate-limiting step was established experimentally. Reaction conditions were optimized to satisfy three related criteria: 1) linear readout of fluorescent signal which is directly proportional to sulfatase activity; 2) quantitative release of 4-MU by glucosidase activity under every biochemical condition examined and; 3) negligible fluorescent quenching of the free chromophore.
For the 6-O-sulfatase/β-glucosidase assay, the standard reaction conditions included 2 μM recombinant enzyme, 50 mM sodium acetate buffer, pH 5.5, and 5 mM CaCl2 in a 20 μl reaction volume. 4-MU-GlcNAc,6S substrate concentration was varied from 0.1-2 mM. 2 μL of enzyme were added to each well of a microtiter plate (prechilled on ice), plate gently vortexed, and contents of each well spun down for 1 minute at 500×g, 4° C. The assay was initiated by transferring the 96 well plate to a heating block prequilibrated at 30° C. Sulfatase incubation (first enzyme) was carried out at 30° C. for 20 minutes, after which enzyme activity was inactivated by heat denaturation (95° C., 10 minutes). In the second enzyme (glucosidase) step, the microtiter plate was once again chilled on ice. […]

The mark [3] stands for this setting: other: Addition: 0.5 mM Ca^+2, pH 6.0, 37.0 °C.
Where [4] appears, read: other: Addition: 5 mM Ca^+2, pH 6.0, 37.0 °C.
Setting [5] is: other: Addition: 0.5 mM Ca^+2, pH 5.5, 30° C.
Setting [6] is: other: Addition: 5 mM Ca^+2, pH 5.5, 30° C.
Where [7] appears, read: other: Addition: none, pH 5.5, 30° C.

B1: Flavobacterium heparinum N-sulfamidase (ORF C), recombinant, NH2-terminal truncation lacking signal sequence, SEQ ID NO: 4 (Pedobacter heparinus DSM 2366) (protein)
chain: SCTSPEKKTDRPNILMIMSDNQSWNHVGSYGDQTVRTPNMDRIAKEGVRFTNAFCSSPSCTPARAGMLTGQDIWRLEDGGNLWGVLPVKYKVYPDLLEEAGYAIGFQGKGWGPGSFEANKRPRNPAGNEFKSFGAFLKDKKEGPWCYWISSHEPHRPYVEGSGEKAGIDPNKVKVPAYLPDHISIRKDIADYYAAVETFDRELGEALDQLKASGELDNTVIVVCSDNGWQMPRGLANLYDFGTHVPLIISWPGKFKQDVVADNLVTLNDLAPTFLQLGKVPVPADMTGKSLLPIVEAGKKDEKPRDYVVLGRERHAFVRRHGLGYPGRAIRTKDYLYIKNYEPNRWPAGDPPFYGDIDPYMFNWPGETKYYLIEHKDDPKVKSFFELGMGKRPAEELFDINKDPDELHNLAALPEYQKIKQELVAKLRNYLVATKDPRETNGNIQIWDTAAYFSEIDKTPKPSKEMQKRFKLDSSYNYLK
notes: E. coli BL21(DE3), N-terminal 6xHis removed by thrombin
As usually defined, the Km is the substrate concentration at which the rate is half of its maximum. By kcat is commonly meant the number of substrate molecules converted per active site and unit of time at saturation. B1: in series [1] (setting [3]), the Km was 45 µM and the kcat worked out at 0.085 s⁻¹. For the same protein, in series [1] (setting [4]), the Km was 178 µM and the turnover number (kcat) turned out to be 0.365 s⁻¹.

B2: Flavobacterium heparinum 6-O-sulfatase (ORF B), recombinant, NH2-terminal truncation lacking signal sequence, SEQ ID NO: 2 (Pedobacter heparinus DSM 2366) (protein)
chain: TLMSCQQPKPAESAKRPNIVFIMTDDHTIQAISAYGSKLVKTPNLDRIANEGMLFNNCFVTNAVCGPSRATILTGKYSHLNGLTDNSKVFDSTQVIYPQLLKKAGYQTAMIGKWHLGSTPMGFDYYSILPNQGQYYQPEFIENGHLVKEKGYVTDLITDKAIGFLEKRDHDKPFLMIYQHKAPHRNWLPAPRHLGMFDDTVFPEPANLLDDFKGRGRAAKEQLMNISTDMWPAWDLKMLSTAQLDSMAKLPVSPKFKDAKGDDYQQANDPSLDKARFFEVYNRMTDAEKVQWRKVYDKRVAEFKRLNPKGADLVRWKYQQYMRDYLACVVSVDENVGRLMDYLKKIGELDNTIIVYTSDQGFYLGEHGYFDKRFMYDESFRTPLMVRYPPSVKAGSVSNAFAMNLDFAPTLLDYAGVKIPADMQGLSLRPVLDNAGKSPENWRKAVYYHYYEFPSWHMVKRHYGIRTERYKLIHFYNDIDEWELYDMQKDPHEMQNLYNDKAYEPIIKDLKVQMKKLQVQYKDTNPTEAL
notes: as for B1
In the case of B2, the Km in series [2] (setting [5]) was determined as 217 µM; in series [2] (setting [6]), 327 µM; in series [2] (setting [7]), 146 µM. The kcat in series [2] (setting [5]) was determined as 0.055 s⁻¹; in series [2] (setting [6]), 0.113 s⁻¹; in series [2] (setting [7]), 0.0417 s⁻¹.
